Legend:
M4 muscarinic receptor [1] = target: T1, M4 muscarinic receptor (Homo sapiens, UniProt P08173, L74A); assay: Thermostability of M4 muscarinic receptor bound to antagonist NMS; type: physicochemical; conditions: antagonist NMS bound, data not shown
T1 construct: made in house; host or cells: HEK293T cells, transient
T1 sequence (P08173 1-479 L74A): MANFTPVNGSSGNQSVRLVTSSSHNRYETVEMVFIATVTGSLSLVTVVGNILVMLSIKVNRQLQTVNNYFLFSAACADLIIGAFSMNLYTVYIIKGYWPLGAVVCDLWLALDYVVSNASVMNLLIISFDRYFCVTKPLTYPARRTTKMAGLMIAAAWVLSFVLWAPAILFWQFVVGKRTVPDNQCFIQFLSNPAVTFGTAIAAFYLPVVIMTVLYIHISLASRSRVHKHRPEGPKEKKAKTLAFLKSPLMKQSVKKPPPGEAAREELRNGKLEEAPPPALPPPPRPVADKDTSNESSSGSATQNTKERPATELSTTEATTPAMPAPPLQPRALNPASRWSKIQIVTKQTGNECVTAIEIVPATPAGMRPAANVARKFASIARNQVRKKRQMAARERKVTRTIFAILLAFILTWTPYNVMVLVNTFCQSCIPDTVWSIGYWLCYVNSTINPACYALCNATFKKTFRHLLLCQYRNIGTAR
Description: (§1) In order to stabilise the M4 muscarinic receptors in antagonist conformation, a systematic alanine-scan was performed to identify mutations that stabilise receptors bound to the muscarinic antagonist, NMS. […] However, L71A (three residues N-terminal of the L2.46) was identified as a stabilising mutation. This mutation increases the Tm of this receptor by about 2° C. (FIG. 8a).
(§2) A2AR-(2-316) expression was carried out by using the pRG/III-hs-MBP E. coli expression vector and DH5α cells. Cells were grown at 37° C. in 2 L flasks containing 500 mL of 2×TY medium supplemented with Ampicillin (100 μg/mL) and glucose (0.2% w/v). At OD600≈0.7, IPTG and theophylline were added at final concentrations respectively of 0.5 mM and 100 μM, and the temperature was reduced to 20° C. After 22 to 24 hours, cells were harvested in aliquots of 14 mL, centrifuged for 30 min and stored at −20° C. Both 5HT2C and M4 receptors were transiently expressed in HEK293T cells using GeneJuice transfection reagent used according to the manufacturers guidelines.
(§3) Transiently transfected mammalian cells expressing M4 were harvested about 40 hours post transfection and the receptors were solubilised in 50 mM Tris pH 7.5/250 mM NaCl/1% DDM/EDTA free protease inhibitor mix for 1 hour rotating at 4° C. The solubilised lysate was then cleared by centrifugation at 13000 rpm for 15 minutes at 4° C. The solubilised receptors were then purified on Ni-NTA beads and eluted with 100 mM histidine. The eluted receptor was used in radioligand binding assay. Thermostability of M4 was measured using 25 μL of purified receptor mixed with 95 μL of 12 nM [^3H]-NMS (final concentration of 10 nM). The sample was incubated for 60 min at 4° C., then 30 min at the specified temperature and then 30 min at 4° C. Receptor bound and free radioligand were separated using a 96-well plate gel filtration assay.

M4 muscarinic receptor [2] = target: T2, M4 muscarinic receptor (Homo sapiens, UniProt P08173, L71A); assay: as above; type: physicochemical; conditions: antagonist NMS bound, versus parent M4
T2 construct: made in house; host or cells: HEK293T cells, transient
T2 sequence (P08173 1-479 L71A): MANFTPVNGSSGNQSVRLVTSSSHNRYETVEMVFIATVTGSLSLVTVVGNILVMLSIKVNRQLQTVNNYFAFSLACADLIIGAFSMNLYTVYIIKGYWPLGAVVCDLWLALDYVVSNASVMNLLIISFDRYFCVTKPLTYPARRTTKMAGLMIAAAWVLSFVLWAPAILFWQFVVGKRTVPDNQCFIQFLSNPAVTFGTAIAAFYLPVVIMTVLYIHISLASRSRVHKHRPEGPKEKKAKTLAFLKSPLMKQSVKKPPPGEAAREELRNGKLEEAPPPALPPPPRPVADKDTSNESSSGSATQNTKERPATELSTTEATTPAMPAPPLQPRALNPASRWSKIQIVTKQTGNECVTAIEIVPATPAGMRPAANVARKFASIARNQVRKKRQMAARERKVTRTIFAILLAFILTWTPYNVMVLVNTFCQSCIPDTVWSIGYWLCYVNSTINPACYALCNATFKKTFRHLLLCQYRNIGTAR
Description: as §1, §2, §3

M4 muscarinic receptor [3] = assay: as above; type: physicochemical, human; conditions: bound to antagonist NMS
Description: as §1, §2, §3

5HT2C receptor [4] = target: T3, 5HT2C receptor (Homo sapiens, UniProt P28335, L95A); assay: Thermostability of 5HT2C receptor bound to antagonist mesulergine; type: physicochemical; conditions: antagonist bound 5HT2C, data not shown
T3 construct: made in house
T3 sequence (P28335 33-458 L95A): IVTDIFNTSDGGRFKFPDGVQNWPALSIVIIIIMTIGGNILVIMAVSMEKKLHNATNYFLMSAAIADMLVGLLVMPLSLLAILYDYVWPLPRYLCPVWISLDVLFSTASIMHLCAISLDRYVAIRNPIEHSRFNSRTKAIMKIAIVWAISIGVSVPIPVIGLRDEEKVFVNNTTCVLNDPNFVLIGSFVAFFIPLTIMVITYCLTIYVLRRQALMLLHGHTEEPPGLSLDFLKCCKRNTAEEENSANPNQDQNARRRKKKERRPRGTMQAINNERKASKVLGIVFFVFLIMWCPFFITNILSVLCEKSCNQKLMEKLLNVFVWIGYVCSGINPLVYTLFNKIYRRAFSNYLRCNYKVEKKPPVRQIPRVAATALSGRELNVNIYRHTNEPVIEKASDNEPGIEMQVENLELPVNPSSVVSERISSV
Description: as §2
(§4) 5HT2C receptor was solubilised from transiently transfected mammalian cells in 50 mM Hepes pH7.4, 100 mM KCl, 0.5% DDM (0.1% CHS/0.6% CHAPS was added to cells for SCH23390 agonist assay). Tm analysis was performed directly on the soluble lysate. The Tm was determined by incubating 108 μl of the lysate with [N^6-methyl-^3H]Mesulergine radioligand at a final concentration of 17 nM or 9 nM [^3H]SCH23390 for one hour at 4° C. The six ligand incubations are then incubated at six different temperatures from 25° C. to 55° C., for thirty minutes. Receptor bound and free radioligand were separated using a 96-well plate gel filtration assay.

5HT2C receptor [5] = assay: Thermostability of 5HT2C receptor bound to agonist SCH23390; type: physicochemical, human
Description: An alanine scan has been carried out on the 5HT2C receptor in the presence of the agonist SCH23390 in order to stabilise the agonist conformation. Similar to A2A, it appears that mutating L2.46 (L95 in 5HT2C) to alanine confers significant stability on this receptor increasing the Tm of the receptor by 5.4° C. (FIG. 7). It is notable that in addition to L95, mutating the nearby M93 (two residues away from L2.46) to alanine also confers stability to the agonist bound receptor, resulting in an increase of 2.9° C.
as §2, §4
5HT2C receptor was solubilised from transiently transfected mammalian cells about 40 hours post transfection, in 50 mM Hepes pH7.4/100 mM KCl/0.5% DDM/(0.1% CHS/0.6% CHAPS was added to cells for SCH23390 agonist assay) and protease inhibitor. Cell lysates were left at 4° C. on a rotator and then cleared by centrifugation at 13,200 rpm for 20 minutes at 4° C. Thermostability analysis was performed directly on the soluble lysate. The Tm was determined by incubating 108 μl of the lysate with [N^6-methyl-^3H]Mesulergine radioligand at a final concentration of 17 nM or 9 nM [^3H]SCH23390 for one hour at 4° C. The six ligand incubations are then incubated at six different temperatures from 25° C. to 55° C., for thirty minutes. Receptor bound and free radioligand were separated using G25 Sephadex spin columns.

5HT2C receptor [6] = assay: Thermostability of 5HT2C receptor bound to antagonist mesulergine; type: physicochemical, human; conditions: bound to antagonist (mesulergine)
Description: as §2, §4

5HT2C receptor [7] = target: T4, 5HT2C receptor (Homo sapiens, UniProt P28335, S94A); assay: as above; type: physicochemical; conditions: antagonist bound, versus parent 5HT2C
T4 construct: made in house
T4 sequence (P28335 33-458 S94A): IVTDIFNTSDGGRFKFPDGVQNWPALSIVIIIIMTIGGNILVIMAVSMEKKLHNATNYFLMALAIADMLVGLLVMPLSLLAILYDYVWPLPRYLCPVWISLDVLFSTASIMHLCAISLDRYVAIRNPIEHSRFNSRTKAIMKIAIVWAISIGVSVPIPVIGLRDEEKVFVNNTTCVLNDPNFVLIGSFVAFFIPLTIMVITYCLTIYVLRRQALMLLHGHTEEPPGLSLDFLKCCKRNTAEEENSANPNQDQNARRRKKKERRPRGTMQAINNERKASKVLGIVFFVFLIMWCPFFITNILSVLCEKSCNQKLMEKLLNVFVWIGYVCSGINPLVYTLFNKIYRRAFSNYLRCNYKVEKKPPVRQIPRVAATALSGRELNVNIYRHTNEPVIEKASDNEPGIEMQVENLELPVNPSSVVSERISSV
Description: as §2, §4

B1: M4 L2.46: M4 muscarinic receptor with L2.46 residue mutated to alanine (protein, UniProt P08173 1-479, looked up, variant L74A)
Muscarinic acetylcholine …: MANFTPVNGSSGNQSVRLVTSSSHNRYETVEMVFIATVTGSLSLVTVVGNILVMLSIKVNRQLQTVNNYFLFSAACADLIIGAFSMNLYTVYIIKGYWPLGAVVCDLWLALDYVVSNASVMNLLIISFDRYFCVTKPLTYPARRTTKMAGLMIAAAWVLSFVLWAPAILFWQFVVGKRTVPDNQCFIQFLSNPAVTFGTAIAAFYLPVVIMTVLYIHISLASRSRVHKHRPEGPKEKKAKTLAFLKSPLMKQSVKKPPPGEAAREELRNGKLEEAPPPALPPPPRPVADKDTSNESSSGSATQNTKERPATELSTTEATTPAMPAPPLQPRALNPASRWSKIQIVTKQTGNECVTAIEIVPATPAGMRPAANVARKFASIARNQVRKKRQMAARERKVTRTIFAILLAFILTWTPYNVMVLVNTFCQSCIPDTVWSIGYWLCYVNSTINPACYALCNATFKKTFRHLLLCQYRNIGTAR
effect on thermal stability (M4 muscarinic receptor [1]): does not change the thermal stability of this receptor significantly

B2: L71A: M4 muscarinic receptor mutant L71A, three residues N-terminal of the L2.46 (protein, UniProt P08173 1-479, looked up, variant L71A)
Muscarinic acetylcholine …: MANFTPVNGSSGNQSVRLVTSSSHNRYETVEMVFIATVTGSLSLVTVVGNILVMLSIKVNRQLQTVNNYFAFSLACADLIIGAFSMNLYTVYIIKGYWPLGAVVCDLWLALDYVVSNASVMNLLIISFDRYFCVTKPLTYPARRTTKMAGLMIAAAWVLSFVLWAPAILFWQFVVGKRTVPDNQCFIQFLSNPAVTFGTAIAAFYLPVVIMTVLYIHISLASRSRVHKHRPEGPKEKKAKTLAFLKSPLMKQSVKKPPPGEAAREELRNGKLEEAPPPALPPPPRPVADKDTSNESSSGSATQNTKERPATELSTTEATTPAMPAPPLQPRALNPASRWSKIQIVTKQTGNECVTAIEIVPATPAGMRPAANVARKFASIARNQVRKKRQMAARERKVTRTIFAILLAFILTWTPYNVMVLVNTFCQSCIPDTVWSIGYWLCYVNSTINPACYALCNATFKKTFRHLLLCQYRNIGTAR
increase of Tm (M4 muscarinic receptor [2]): about 2 °C
Tm (M4 muscarinic receptor [3]): 36.0 °C

B3: L95A: 5HT2C receptor mutant, L2.46 (L95 in 5HT2C) to alanine (protein, UniProt P28335 33-458, looked up, variant L95A)
5-hydroxytryptamine receptor …: IVTDIFNTSDGGRFKFPDGVQNWPALSIVIIIIMTIGGNILVIMAVSMEKKLHNATNYFLMSAAIADMLVGLLVMPLSLLAILYDYVWPLPRYLCPVWISLDVLFSTASIMHLCAISLDRYVAIRNPIEHSRFNSRTKAIMKIAIVWAISIGVSVPIPVIGLRDEEKVFVNNTTCVLNDPNFVLIGSFVAFFIPLTIMVITYCLTIYVLRRQALMLLHGHTEEPPGLSLDFLKCCKRNTAEEENSANPNQDQNARRRKKKERRPRGTMQAINNERKASKVLGIVFFVFLIMWCPFFITNILSVLCEKSCNQKLMEKLLNVFVWIGYVCSGINPLVYTLFNKIYRRAFSNYLRCNYKVEKKPPVRQIPRVAATALSGRELNVNIYRHTNEPVIEKASDNEPGIEMQVENLELPVNPSSVVSERISSV
effect on thermal stability (5HT2C receptor [4]): did not confer any stability
increase of Tm (5HT2C receptor [5]; agonist SCH23390 bound, versus parent 5HT2C): 5.4 °C
Tm (5HT2C receptor [5]; bound to agonist SCH23390): 48.8 °C

B4: S94A: 5HT2C receptor mutant, S94 to alanine (protein, UniProt P28335 33-458, looked up, variant S94A)
5-hydroxytryptamine receptor …: IVTDIFNTSDGGRFKFPDGVQNWPALSIVIIIIMTIGGNILVIMAVSMEKKLHNATNYFLMALAIADMLVGLLVMPLSLLAILYDYVWPLPRYLCPVWISLDVLFSTASIMHLCAISLDRYVAIRNPIEHSRFNSRTKAIMKIAIVWAISIGVSVPIPVIGLRDEEKVFVNNTTCVLNDPNFVLIGSFVAFFIPLTIMVITYCLTIYVLRRQALMLLHGHTEEPPGLSLDFLKCCKRNTAEEENSANPNQDQNARRRKKKERRPRGTMQAINNERKASKVLGIVFFVFLIMWCPFFITNILSVLCEKSCNQKLMEKLLNVFVWIGYVCSGINPLVYTLFNKIYRRAFSNYLRCNYKVEKKPPVRQIPRVAATALSGRELNVNIYRHTNEPVIEKASDNEPGIEMQVENLELPVNPSSVVSERISSV
Tm (5HT2C receptor [6]): 48.9 °C
increase of Tm (5HT2C receptor [7]): 11.76 °C

Source: patent US8703915B2, “Mutant proteins and methods for producing them” (Heptares Therapeutics Limited, priority 2009, dated 2014)
